Experimental data: PMC9314367

Target: Rubisco large subunit CbbL of Cyanobium sp. PCC 7001 (Cyanobium sp. PCC 7001)
Assay: cryo-EM structure; cryo-electron tomography with subtomogram averaging (emClarity) of Rubisco inside isolated native Cyanobium α-carboxysomes in TEMB buffer; 3.8 Å; all Rubiscos and the three concentric layers averaged separately

stoichiometry N: 8
Substance: Rubisco large subunit CbbL of Cyanobium sp. PCC 7001 (natural protein)
